A short description of the data set: amyloid nucleation score (Sup35N fusion, yeast selection) (log enrichment); library NNK1; higher = more nucleation; inactive = no reads after selection. The procedure, abridged: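 In psi-negative yeast, Sup35N fusions carrying peptides of 20 random codons were induced with 100 μM copper sulfate for 24 hours. The cells then grew 7 days at 30°C on medium lacking adenine and uracil, and plasmid inserts from input and output were Illumina-sequenced, excluding sequences with under 100 input reads. Nucleation score is the DiMSum log enrichment of output over input reads, centred on the mode score of non-aggregating sequences.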

± gives the uncertainty stated by the source.

Regarding YEMSY, the amyloid nucleation score was -1.38 ± 2.4. NINPLFI came in with an amyloid nucleation score of 1.96 ± 0.26. As for REVWRLFILSRVVGYKVIL, the amyloid nucleation score came out at 0.142 ± 0.22.

Take CRWSVLGREFSSQFVCWEDW: the amyloid nucleation score is -0.59 ± 0.54. Next, TYIPDIYG: 1.1 ± 0.74. Next, SLFKRILYHVSGFRYCCTSV: -1.01 ± 1. Next, RPNMVNVKNSRRFSL: 0.257 ± 0.48. In turn, SYAFLCNGSSRGLIIAMVLT had an amyloid nucleation score of -0.057 ± 0.29. The same measure for NSAPDP: -0.948 ± 2.4; for YILVNMMGVWVVKVTHKVN: “inactive”.

Consider HMISVDITLVSLWRRIL, for which the amyloid nucleation score is -0.402 ± 0.81.

In turn, TRSYNWARCTLSGVALGQGQ gave an amyloid nucleation score of -0.724 ± 2.4. Next, SEAMGMDNSQWSFALFMASM: 0.184 ± 0.48; APSLVVRPSFGGLRTRVVYP: 0.44 ± 0.58; IAIFKYVKRDSSGKNCLSRS: -0.242 ± 0.25. STLFSWNRRNCDTHVLLVPW: the amyloid nucleation score result was “inactive”. In the case of FEWRFPHQR, the amyloid nucleation score was -0.025 ± 0.64. Next, VCYLGECRGHAIMEYWWSWR: 2.4 ± 0.24; NKYLDSKDWRAFCRSYFNLF: 0.891 ± 0.14. The same measure for KTLSLLIL: 0.387 ± 0.37; for SVWDGFSLRYPSLVYLRCGS: -0.634 ± 0.71; for AFYRAFTPCISVPIRND: 0.765 ± 0.46. In turn, CTPFMRTSLSFICSDSSVML displayed an amyloid nucleation score of 0.771 ± 0.82. Consider VRVNRLSFLNNALLFWLFAK, for which the amyloid nucleation score was found to be 2.3 ± 0.1. NVSDWSHVFMSMFLIMGGCN displayed an amyloid nucleation score of 0.509 ± 0.66. In turn, SGGIQCTGGRISVSCAVGKN registered an amyloid nucleation score of -0.224 ± 0.94.

With AKSLVDRKRVDNPWRFSVGW, the amyloid nucleation score turned out to be 0.297 ± 0.51. With MYSLFMSKVRHFCVT, the amyloid nucleation score came to 2.09 ± 0.6.

As for ILSPRVPINRICAVEQRRGI, the amyloid nucleation score was -0.952 ± 0.83. In the case of MNENCGFVKFVRSKKRFKDV, the amyloid nucleation score was -0.287 ± 0.39.

Turning to TFGDWHKLRWRRSQPKCWSG, the amyloid nucleation score is 0.299 ± 0.36. The same measure for CNMKNDLTRGNSRFCNLCCN: 0.85 ± 0.53; for YLVITLFPEIIIDYLSYLCP: 4.52 ± 0.079.

Turning to HRLKTYIMVSFIYRADAVGI, the amyloid nucleation score amounted to 4.89 ± 0.068.

PCLVSCHPGADAYLYDNLEV showed an amyloid nucleation score of -0.856 ± 2.4.

On to YSSCFRSGIF, for which the amyloid nucleation score was -0.68 ± 0.6.

For the substance KGKAAT, the amyloid nucleation score is -0.534 ± 0.87. Next, SMQSSVDYKRGAMTFI: 0.424 ± 0.69; DFGLCHAQNSITQAPDR: -0.153 ± 0.93. SFDYRENCPINTVIWLRLCK: the amyloid nucleation score worked out at 3.93 ± 0.098.

CDSKLHISSSC yielded an amyloid nucleation score of 0.313 ± 0.84.

In turn, RYFNGYITGNLNSASNARSS had an amyloid nucleation score of 1.81 ± 0.18.

In turn, SIFSSSEVGVQLYTMGG had an amyloid nucleation score of 0.91 ± 0.62. WISHSVSLFVSVLGMWMSRD registered an amyloid nucleation score of -2.09 ± 2.4. Turning to YSWLVWGTSPV, the amyloid nucleation score was 0.445 ± 0.38.

Turning to LWYCTSSNNCDCSAAIIVNT, the amyloid nucleation score is 4.19 ± 0.1. The same measure for CYSWHGVYRGYVYSSYNNYV: 0.77 ± 0.52; for RSSKGIPLMENPLVYTMASR: 0.005 ± 1.7; for NLREDENSGCNCGVDFLGQG: -0.435 ± 0.4. The same measure for GFWDFWVGRCLSSYVQFANL: 0.28 ± 0.48; for PWDSHSHHSTNRQLRFSSSG: -0.397 ± 0.6; for GLSLIA: 0.983 ± 0.76.

Take YRKFHPGKRL: the amyloid nucleation score was found to be 0.193 ± 0.58. The same measure for ARWMVWTLESHLPDNFTMVN: -1.21 ± 1.1. For CQQVLWS, the amyloid nucleation score came out at 0.039 ± 0.79. Next, FVCRFQYFSRYATNYFYVWC: “inactive”; YKLLYGYWLDWREGRNHKPK: 0.479 ± 0.32.

These data come from the supplement of paper PMC12042874.
